Experimental data taken from article PMC11966256.

Columns and labels:
[1] = target: HsLARP6(84-183) La domain (Homo sapiens, UniProt Q9BRS8); experiment: analytical SEC
[2] = target: HsLARP6(73-183) La domain (Homo sapiens, UniProt Q9BRS8); experiment: analytical SEC
[3] = target: Cy5-HsLARP6(73-183)G74C La domain (Homo sapiens, UniProt Q9BRS8, G74C); experiment: MST

B1: 5'SL RNA (a2(I)), 48 nt (structured_RNA)
RNA: GGCACAAGGAGUCUGCAUGUCUAAGUGCUAGACAUGCUCAGCUUUGUG
binding result [1]: binds | binding result [2]: binds | Kd [3]: 4.87 ± 0.15 nM
